These results are taken from patent publication US11872268B2, “Safe and effective beta-lactamase dosing for microbiome protection” (Theriva Biologics, Inc., priority 2015, dated 2024).

On the set-up of series [1]: species or system human. As to conditions: in vivo. How it is done:
(§1) This example evaluated the effects of two strengths of oral SYN-004 (75 mg or 150 mg) administered twice in six hours on the plasma pharmacokinetics (PK) and chyme concentrations of a single dose of ceftriaxone administered as an intravenous (IV) infusion (1 g infused over 30 minutes). Further, this example evaluated if SYN-004 was present in chyme, if there was absorption of SYN-004 into plasma, and the safety and tolerability of SYN-004 (75 mg or 150 mg) in combination with IV ceftriaxone.
This was a Phase 1, randomized, multi-center, open-label study. Ten otherwise healthy subjects with functioning ileostomies who were between the ages of 18 and 80 years, inclusive, were enrolled. As an overview, in the first treatment period (Period 1) all subjects received an IV infusion of 1 gram (g) ceftriaxone. In the second treatment period (Period 2) all subjects received an IV infusion of 1 g ceftriaxone and 2 doses of either 75 mg or 150 mg of SYN-004, according to the randomization schedule, and administered 30 minutes before and 5.5 hours after the ceftriaxone infusion. Subjects were screened for study participation within 45 days prior to Check-in (Day −1), and the entire duration of the study may be up to 64 days (from Screening to the end-of-study visit).
The active dosage form of SYN-004 being administered was a hard gelatin, size 0, opaque white capsule containing delayed-release mini-pellets. Subjects randomized to Treatment AB received two oral doses of SYN-004 75 mg (1×75 mg capsule) twice in one day on Day 1 of Period 2. Subjects randomized to Treatment AC received two oral doses of SYN-004 150 mg (2×75 mg capsules) twice in one day on Day 1 of Period 2.
Specifically, in Period 1, all subjects received an IV infusion of 1 g ceftriaxone administered over 30 minutes on Day 1. In Period 2, subjects again received an IV infusion of 1 g ceftriaxone administered over 30 minutes on Day 1, as well as two oral doses of SYN-004 (75 mg or 150 mg) 30 minutes before and 5.5 hours after the IV infusion of 1 g ceftriaxone. All subjects received an infusion of ceftriaxone 1 g over 30 minutes in Period 1 and a second identical, time matched infusion in Period 2. The exact time of day of dosing for consecutive subjects may be staggered (±1 hour) to accommodate sample collection logistics; however, the time of day of ceftriaxone administration on Day 1 in Periods 1 and 2 were consistent for each subject.
With respect to meals and fluid intake, on Day 1 in each period, subjects received a small non-fatty meal approximately 1 hour (7:00 AM) prior to administration of ceftriaxone and again 5 hours after the start of infusion (1:00 PM). Subjects received full meals at approximately 2 and 7.5 hours after the start of the infusion (10:00 AM and 3:30 PM), respectively. In order to generate sufficient chyme output, subjects drank 8 ounces of water or apple juice at the start of the infusion and at 0.5, 1, and 1.5 hours after the start of the infusion (i.e., every half hour between 8:00 AM and 9:30 AM); thereafter, subjects were encouraged to drink 8 ounces of water or apple juice hourly between 2 and 7 hours after the start of the infusion (10:00 AM to 3:00 PM).
On Day 1, Period 1, serial blood and chyme samples were collected from approximately 30 minutes pre-dose through approximately 7 hours for serial blood and 8.5 for chyme after the start of infusion for determination of ceftriaxone concentration. […]

Series [2] can be described thus: Phase 1b/2a ileostomy study (Example 5): ceftriaxone plasma concentration. It is filed as in vivo, human. As to conditions: 1 g IV with and without oral SYN-004 75 or 150 mg. How it is done:
as §1
This was a Phase 1, randomized, multi-center, open-label study. Ten otherwise healthy subjects with functioning ileostomies who were between the ages of 18 and 80 years, inclusive, were enrolled. […]
Pharmacokinetics: Serial blood (5 mL each) and chyme samples (2 mL minimum) were collected on Day 1 of Period 1 and Period 2. The following PK parameters of SYN-004 and ceftriaxone were determined from the plasma and chyme concentration-time data for all evaluable subjects using non-compartmental methods: maximum observed plasma concentration (Cmax), area under the concentration-time curve from time 0 to the last quantifiable concentration (AUCt), and time to reach Cmax (Tmax) as applicable. In addition, area under the concentration-time curve from time 0 to infinity (AUC∞) was calculated where determinable.

Another series has as its target SYN-004 (Bacillus licheniformis, UniProt P00808, D288N). Description: SYN-004 activity in human intestinal chyme in the presence of beta-lactamase inhibitor (ceftriaxone by LC/MS-MS). It counts as biochemical. As to conditions: 20 mg/ml Sulbactam, 8 ug/ml SYN-004. The method, then: Ceftriaxone (at 3 ug/ml or 1500 ug/ml) was mixed with human intestinal chyme alone, or with chyme plus SYN-004 (8 ug/ml) or with chyme plus the beta-lactamase inhibitor sulbactam, (20 mg/ml) or chyme plus both and then the samples were flash frozen. The flash frozen samples were thawed on ice and sulbactam was added to some samples, the protein was precipitated with acetonitrile and the samples were analyzed for ceftriaxone concentration by LC/MS-MS. The table below provides results from triplicate samples.

On the set-up of series [3]: species or system human. As to conditions: in vivo, po. How it is done: (§2) A Phase 1, double blind, randomized, placebo controlled study was carried out to assess the safety, tolerability, and PK of SYN-004 in healthy adult subjects. Specifically, multiple doses of oral SYN-004 capsules (75 mg, 150 mg, or 300 mg) were administered to the subjects at 4 doses per day for 7 days. Blood samples were collected for PK evaluation and determination of anti-SYN-004 antibodies. A total of 24 healthy adult subjects were enrolled in the study with 6 active and 2 placebo subjects per cohort.

For series [4] the following is noted: human, in vivo. The method, then:
as §2

For series [5] the following is noted: human, in vivo, po. The method, then: A Phase 1, double blind, placebo controlled study was carried out to assess the safety, tolerability, and pharmacokinetics (PK) of SYN-004 in healthy adult subjects. Specifically, a single dose of oral SYN-004 capsule (75 mg, 150 mg, 300 mg, 600 mg, or 750 mg) was administered to subjects. Blood samples were collected for PK evaluation and determination of anti-SYN-004 antibodies. A total of 40 healthy adult subjects were enrolled in the study with 6 active and 2 placebo subjects per cohort.

Read-outs that look alike come from different tables or passages of the source.

Sequence of SYN-004 (P00808 44-307 D288N): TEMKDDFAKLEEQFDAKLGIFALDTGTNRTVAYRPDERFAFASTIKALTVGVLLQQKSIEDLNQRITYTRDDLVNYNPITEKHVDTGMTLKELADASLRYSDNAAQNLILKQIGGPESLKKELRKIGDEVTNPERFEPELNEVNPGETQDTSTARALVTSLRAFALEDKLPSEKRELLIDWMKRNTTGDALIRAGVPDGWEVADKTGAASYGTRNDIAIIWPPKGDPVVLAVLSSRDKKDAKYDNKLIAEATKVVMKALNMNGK

On to `CO/N=C(\C(=O)N[C@@H]1C(=O)N2C(C(=O)O)=C(CSc3nc(=O)c(=O)[nH]n3C)CS[C@H]12)c1csc(N)n1` [Ceftriaxone], for which, in series [1] (human), the “time ceftriaxone appeared in the chyme” value lay within 1.5 to 2.5 h and the “time of second peak of ceftriaxone in chyme” value fell in the range of 6 to 8 h. Further, the “peak ceftriaxone in chyme” value in series [1] (human, iv) lay within 115 to 1400 µg/mL. Besides, in series [2], the “plasma concentration of ceftriaxone, Period 1 versus Period 2” value is on record as “no significant difference”.

Take `CC1(C)[C@H](C(=O)O)N2C(=O)C[C@H]2S1(=O)=O` [Sulbactam, sulbactam]: the “inhibition of SYN-004 activity in intestinal chyme” value on SYN-004 is given as “did not substantially inhibit SYN-004 activity”.

Take “SYN-004: beta-lactamase with the amino acid sequence of SEQ ID NO: 1; given orally as delayed-release capsule of enteric-coated pellets”: in series [1], the “degradation of ceftriaxone in chyme” value is reported as “effectively degraded ceftriaxone” and the “time measurable SYN-004 began to be detectable in the chyme” value was determined as 5.5 h. Besides, in series [3], the anti-SYN-004 antibodies result is on record as “No anti-SYN-004 antibodies were detected”. The systemic bioavailability result in series [4] was “not systemically bioavailable”. Also, the systemic bioavailability result in series [5] was “not systemically bioavailable”. In addition, in series [5] (750 mg), the “Cmax (plasma)” value worked out at 1.4 ng/mL and the “Tmax (plasma)” value lay in the range of 1 to 4 h.
